In article PMC8298264, “Function of cofactor Akirin2 in the regulation of gene expression in model human neutrophil-like HL60 cells” (Bioscience Reports, 2021):

Test system: human HL60 cells
Assay: SWATH-MS proteomics, differential protein representation, akirin2 KO vs WT HL60 cells
Assay type: cell-based
Conditions: sheet "Under-represented in KO"
Summary of the method: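 WT and akirin2 KO HL60 lysates (150 µg, n=3 biological replicates) were FASP trypsin-digested and desalted. A spectral library was built by IDA from 3 µg digests, then 5 µg per sample went to variable-window SWATH DIA over a 120-min 5–30% acetonitrile gradient. Identifications were accepted at 1% global FDR, with total-area-sum normalization.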

| Molecule | Fold Change (KO vs WT HL60 cells) | Log (Fold Change) (KO vs WT HL60 cells) | Fold Change (akirin2 KO vs WT HL60 cells) | Log (Fold Change) (akirin2 KO vs WT HL60 cells) |
| --- | --- | --- | --- | --- |
| sp¦O95202¦LETM1_HUMAN (protein, UniProt O95202 116-739, looked up) Mitochondrial proton/calcium …: DDSVVEKSLKSLKDKNKKLEEGGPVYSPPAEVVVKKSLGQRVLDELKHYYHGFRLLWIDTKIAARMLWRILNGHSLTRRERRQFLRICADLFRLVPFLVFVVVPFMEFLLPVAVKLFPNMLPSTFETQSLKEERLKKELRVKLELAKFLQDTIEEMALKNKAAKGSATKDFSVFFQKIRETGERPSNEEIMRFSKLFEDELTLDNLTRPQLVALCKLLELQSIGTNNFLRFQLTMRLRSIKADDKLIAEEGVDSLNVKELQAACRARGMRALGVTEDRLRGQLKQWLDLHLHQEIPTSLLILSRAMYLPDTLSPADQLKSTLQTLPEIVAKEAQVKVAEVEGEQVDNKAKLEATLQEEAAIQQEHREKELQKRSEVAKDFEPERVVAAPQRPGTEPQPEMPDTVLQSETLKDTAPVLEGLKEEEITKEEIDILSDACSKLQEQKKSLTKEKEELELLKEDVQDYSEDLQEIKKELSKTGEEKYVEESKASKRLTKRVQQMIGQIDGLISQLEMDQQAGKLAPANGMPTGENVISVAELINAMKQVKHIPESKLTSLAAALDENKDGKVNIDDLVKVIELVDKEDVHISTSQVAEIVATLEKEEKVEEKEKAKEKAEKEVAEVKS | 0.5097 | -0.2927 |  |  |
| sp¦Q86UP2¦KTN1_HUMAN (protein, UniProt Q86UP2 1-1357, looked up) Kinectin: MEFYESAYFIVLIPSIVITVIFLFFWLFMKETLYDEVLAKQKREQKLIPTKTDKKKAEKKKNKKKEIQNGNLHESDSESVPRDFKLSDALAVEDDQVAPVPLNVVETSSSVRERKKKEKKQKPVLEEQVIKESDASKIPGKKVEPVPVTKQPTPPSEAAASKKKPGQKKSKNGSDDQDKKVETLMVPSKRQEALPLHQETKQESGSGKKKASSKKQKTENVFVDEPLIHATTYIPLMDNADSSPVVDKREVIDLLKPDQVEGIQKSGTKKLKTETDKENAEVKFKDFLLSLKTMMFSEDEALCVVDLLKEKSGVIQDALKKSSKGELTTLIHQLQEKDKLLAAVKEDAAATKDRCKQLTQEMMTEKERSNVVITRMKDRIGTLEKEHNVFQNKIHVSYQETQQMQMKFQQVREQMEAEIAHLKQENGILRDAVSNTTNQLESKQSAELNKLRQDYARLVNELTEKTGKLQQEEVQKKNAEQAATQLKVQLQEAERRWEEVQSYIRKRTAEHEAAQQDLQSKFVAKENEVQSLHSKLTDTLVSKQQLEQRLMQLMESEQKRVNKEESLQMQVQDILEQNEALKAQIQQFHSQIAAQTSASVLAEELHKVIAEKDKQIKQTEDSLASERDRLTSKEEELKDIQNMNFLLKAEVQKLQALANEQAAAAHELEKMQQSVYVKDDKIRLLEEQLQHEISNKMEEFKILNDQNKALKSEVQKLQTLVSEQPNKDVVEQMEKCIQEKDEKLKTVEELLETGLIQVATKEEELNAIRTENSSLTKEVQDLKAKQNDQVSFASLVEELKKVIHEKDGKIKSVEELLEAELLKVANKEKTVQDLKQEIKALKEEIGNVQLEKAQQLSITSKVQELQNLLKGKEEQMNTMKAVLEEKEKDLANTGKWLQDLQEENESLKAHVQEVAQHNLKEASSASQFEELEIVLKEKENELKRLEAMLKERESDLSSKTQLLQDVQDENKLFKSQIEQLKQQNYQQASSFPPHEELLKVISEREKEISGLWNELDSLKDAVEHQRKKNNDLREKNWEAMEALASTEKMLQDKVNKTSKERQQQVEAVELEAKEVLKKLFPKVSVPSNLSYGEWLHGFEKKAKECMAGTSGSEEVKVLEHKLKEADEMHTLLQLECEKYKSVLAETEGILQKLQRSVEQEENKWKVKVDESHKTIKQMQSSFTSSEQELERLRSENKDIENLRREREHLEMELEKAEMERSTYVTEVRELKDLLTELQKKLDDSYSEAVRQNEELNLLKAQLNETLTKLRTEQNERQKVAGDLHKAQQSLELIQSKIVKAAGDTTVIENSDVSPETESSEKETMSVSLNQTVTQLQQLLQAVNQQLTKEKEHYQVLE |  |  | 0.24 | -0.6198 |
| sp¦P36776¦LONM_HUMAN (protein, UniProt P36776 68-959, looked up) Lon protease homolog, …: FWEASSRGGGAFSGGEDASEGGAEEGAGGAGGSAGAGEGPVITALTPMTIPDVFPHLPLIAITRNPVFPRFIKIIEVKNKKLVELLRRKVRLAQPYVGVFLKRDDSNESDVVESLDEIYHTGTFAQIHEMQDLGDKLRMIVMGHRRVHISRQLEVEPEEPEAENKHKPRRKSKRGKKEAEDELSARHPAELAMEPTPELPAEVLMVEVENVVHEDFQVTEEVKALTAEIVKTIRDIIALNPLYRESVLQMMQAGQRVVDNPIYLSDMGAALTGAESHELQDVLEETNIPKRLYKALSLLKKEFELSKLQQRLGREVEEKIKQTHRKYLLQEQLKIIKKELGLEKDDKDAIEEKFRERLKELVVPKHVMDVVDEELSKLGLLDNHSSEFNVTRNYLDWLTSIPWGKYSNENLDLARAQAVLEEDHYGMEDVKKRILEFIAVSQLRGSTQGKILCFYGPPGVGKTSIARSIARALNREYFRFSVGGMTDVAEIKGHRRTYVGAMPGKIIQCLKKTKTENPLILIDEVDKIGRGYQGDPSSALLELLDPEQNANFLDHYLDVPVDLSKVLFICTANVTDTIPEPLRDRMEMINVSGYVAQEKLAIAERYLVPQARALCGLDESKAKLSSDVLTLLIKQYCRESGVRNLQKQVEKVLRKSAYKIVSGEAESVEVTPENLQDFVGKPVFTVERMYDVTPPGVVMGLAWTAMGGSTLFVETSLRRPQDKDAKGDKDGSLEVTGQLGEVMKESARIAYTFARAFLMQHAPANDYLVTSHIHLHVPEGATPKDGPSAGCTIVTALLSLAMGRPVRQNLAMTGEVSLTGKILPVGGIKEKTIAAKRAGVTCIVLPAENKKDFYDLAAFITEGLEVHFVEHYREIFDIAFPDEQAEALAVER | 0.5023 | -0.2991 |  |  |
| sp¦Q7Z3D6¦GLUCM_HUMAN (protein, UniProt Q7Z3D6 29-616, looked up) D-glutamate cyclase, …: TSSMAGELRPASLVVLPRSLAPAFERFCQVNTGPLPLLGQSEPEKWMLPPQGAISETRMGHPQFWKYEFGACTGSLASLEQYSEQLKDMVAFFLGCSFSLEEALEKAGLPRRDPAGHSQTTVPCVTHAGFCCPLVVTMRPIPKDKLEGLVRACCSLGGEQGQPVHMGDPELLGIKELSKPAYGDAMVCPPGEVPVFWPSPLTSLGAVSSCETPLAFASIPGCTVMTDLKDAKAPPGCLTPERIPEVHHISQDPLHYSIASVSASQKIRELESMIGIDPGNRGIGHLLCKDELLKASLSLSHARSVLITTGFPTHFNHEPPEETDGPPGAVALVAFLQALEKEVAIIVDQRAWNLHQKIVEDAVEQGVLKTQIPILTYQGGSVEAAQAFLCKNGDPQTPRFDHLVAIERAGRAADGNYYNARKMNIKHLVDPIDDLFLAAKKIPGISSTGVGDGGNELGMGKVKEAVRRHIRHGDVIACDVEADFAVIAGVSNWGGYALACALYILYSCAVHSQYLRKAVGPSRAPGDQAWTQALPSVIKEEKMLGILVQHKVRSGVSGIVGMEVDGLPFHNTHAEMIQKLVDVTTAQV | 0.5156 | -0.2877 |  |  |
